Starred links: 1 amine or outer side, 2 acyl side, 3 side chain; linkers in the order of their positions; H or OH if unused. Non-standard residues stand in square brackets, D forms with d. Groups on a side chain read outwards from the residue. *: point of attachment. γGlu = O=C(O)[C@H](CCC(=O)[*:2])N[*:1]; Palmitoyl = CCCCCCCCCCCCCCCC(=O)*
B1: H-H-Aib-QGTFTSDYSKYLD-K(Hexadecanoyl-isoGlu)-RRAKDFIEWLLSA-NH2 [Compound 1] (peptide)
peptide: HXQGTFTSDYSKYLDKRRAKDFIEWLLSA
HELM: PEPTIDE1{H.[Aib].Q.G.T.F.T.S.D.Y.S.K.Y.L.D.K.R.R.A.K.D.F.I.E.W.L.L.S.A.[am]}|PEPTIDE2{[CCCCCCCCCCCCCCCC(=O)[*:2]].[gGlu]}$PEPTIDE1,PEPTIDE2,16:R3-2:R2$$$V2.0
SMILES: CCCCCCCCCCCCCCCC(=O)N[C@@H](CCC(=O)NCCCC[C@H](NC(=O)[C@H](CC(=O)O)NC(=O)[C@H](CC(C)C)NC(=O)[C@H](Cc1ccc(O)cc1)NC(=O)[C@H](CCCCN)NC(=O)[C@H](CO)NC(=O)[C@H](Cc1ccc(O)cc1)NC(=O)[C@H](CC(=O)O)NC(=O)[C@H](CO)NC(=O)[C@@H](NC(=O)[C@H](Cc1ccccc1)NC(=O)[C@@H](NC(=O)CNC(=O)[C@H](CCC(N)=O)NC(=O)C(C)(C)NC(=O)[C@@H](N)Cc1c[nH]cn1)[C@@H](C)O)[C@@H](C)O)C(=O)N[C@@H](CCCNC(=N)N)C(=O)N[C@@H](CCCNC(=N)N)C(=O)N[C@@H](C)C(=O)N[C@@H](CCCCN)C(=O)N[C@@H](CC(=O)O)C(=O)N[C@@H](Cc1ccccc1)C(=O)N[C@H](C(=O)N[C@@H](CCC(=O)O)C(=O)N[C@@H](Cc1c[nH]c2ccccc12)C(=O)N[C@@H](CC(C)C)C(=O)N[C@@H](CC(C)C)C(=O)N[C@@H](CO)C(=O)N[C@@H](C)C(N)=O)[C@@H](C)CC)C(=O)O
B2: H-H-Aib-QGTFTSDYSRYLDE-K(Hexadecanoyl-isoGlu)-RARDFIEWLLSA-NH2 [Compound 9] (peptide)
peptide: HXQGTFTSDYSRYLDEKRARDFIEWLLSA
HELM: PEPTIDE1{H.[Aib].Q.G.T.F.T.S.D.Y.S.R.Y.L.D.E.K.R.A.R.D.F.I.E.W.L.L.S.A.[am]}|PEPTIDE2{[CCCCCCCCCCCCCCCC(=O)[*:2]].[gGlu]}$PEPTIDE1,PEPTIDE2,17:R3-2:R2$$$V2.0
SMILES: CCCCCCCCCCCCCCCC(=O)N[C@@H](CCC(=O)NCCCC[C@H](NC(=O)[C@H](CCC(=O)O)NC(=O)[C@H](CC(=O)O)NC(=O)[C@H](CC(C)C)NC(=O)[C@H](Cc1ccc(O)cc1)NC(=O)[C@H](CCCNC(=N)N)NC(=O)[C@H](CO)NC(=O)[C@H](Cc1ccc(O)cc1)NC(=O)[C@H](CC(=O)O)NC(=O)[C@H](CO)NC(=O)[C@@H](NC(=O)[C@H](Cc1ccccc1)NC(=O)[C@@H](NC(=O)CNC(=O)[C@H](CCC(N)=O)NC(=O)C(C)(C)NC(=O)[C@@H](N)Cc1c[nH]cn1)[C@@H](C)O)[C@@H](C)O)C(=O)N[C@@H](CCCNC(=N)N)C(=O)N[C@@H](C)C(=O)N[C@@H](CCCNC(=N)N)C(=O)N[C@@H](CC(=O)O)C(=O)N[C@@H](Cc1ccccc1)C(=O)N[C@H](C(=O)N[C@@H](CCC(=O)O)C(=O)N[C@@H](Cc1c[nH]c2ccccc12)C(=O)N[C@@H](CC(C)C)C(=O)N[C@@H](CC(C)C)C(=O)N[C@@H](CO)C(=O)N[C@@H](C)C(N)=O)[C@@H](C)CC)C(=O)O
B3: H-HSHGTFTSDYSRYLDE-K(Hexadecanoyl-isoGlu)-RARDFIEWLLSA-NH2 [Compound 10] (peptide)
peptide: HSHGTFTSDYSRYLDEKRARDFIEWLLSA
HELM: PEPTIDE1{H.S.H.G.T.F.T.S.D.Y.S.R.Y.L.D.E.K.R.A.R.D.F.I.E.W.L.L.S.A.[am]}|PEPTIDE2{[CCCCCCCCCCCCCCCC(=O)[*:2]].[gGlu]}$PEPTIDE1,PEPTIDE2,17:R3-2:R2$$$V2.0
SMILES: CCCCCCCCCCCCCCCC(=O)N[C@@H](CCC(=O)NCCCC[C@H](NC(=O)[C@H](CCC(=O)O)NC(=O)[C@H](CC(=O)O)NC(=O)[C@H](CC(C)C)NC(=O)[C@H](Cc1ccc(O)cc1)NC(=O)[C@H](CCCNC(=N)N)NC(=O)[C@H](CO)NC(=O)[C@H](Cc1ccc(O)cc1)NC(=O)[C@H](CC(=O)O)NC(=O)[C@H](CO)NC(=O)[C@@H](NC(=O)[C@H](Cc1ccccc1)NC(=O)[C@@H](NC(=O)CNC(=O)[C@H](Cc1c[nH]cn1)NC(=O)[C@H](CO)NC(=O)[C@@H](N)Cc1c[nH]cn1)[C@@H](C)O)[C@@H](C)O)C(=O)N[C@@H](CCCNC(=N)N)C(=O)N[C@@H](C)C(=O)N[C@@H](CCCNC(=N)N)C(=O)N[C@@H](CC(=O)O)C(=O)N[C@@H](Cc1ccccc1)C(=O)N[C@H](C(=O)N[C@@H](CCC(=O)O)C(=O)N[C@@H](Cc1c[nH]c2ccccc12)C(=O)N[C@@H](CC(C)C)C(=O)N[C@@H](CC(C)C)C(=O)N[C@@H](CO)C(=O)N[C@@H](C)C(N)=O)[C@@H](C)CC)C(=O)O
B4: H-H-DSer-HGTFTSDYSRYLDE-K(Hexadecanoyl-isoGlu)-RARDFIEWLLSA-NH2 [Compound 11] (peptide)
peptide: HXHGTFTSDYSRYLDEKRARDFIEWLLSA
HELM: PEPTIDE1{H.[dS].H.G.T.F.T.S.D.Y.S.R.Y.L.D.E.K.R.A.R.D.F.I.E.W.L.L.S.A.[am]}|PEPTIDE2{[CCCCCCCCCCCCCCCC(=O)[*:2]].[gGlu]}$PEPTIDE1,PEPTIDE2,17:R3-2:R2$$$V2.0
SMILES: CCCCCCCCCCCCCCCC(=O)N[C@@H](CCC(=O)NCCCC[C@H](NC(=O)[C@H](CCC(=O)O)NC(=O)[C@H](CC(=O)O)NC(=O)[C@H](CC(C)C)NC(=O)[C@H](Cc1ccc(O)cc1)NC(=O)[C@H](CCCNC(=N)N)NC(=O)[C@H](CO)NC(=O)[C@H](Cc1ccc(O)cc1)NC(=O)[C@H](CC(=O)O)NC(=O)[C@H](CO)NC(=O)[C@@H](NC(=O)[C@H](Cc1ccccc1)NC(=O)[C@@H](NC(=O)CNC(=O)[C@H](Cc1c[nH]cn1)NC(=O)[C@@H](CO)NC(=O)[C@@H](N)Cc1c[nH]cn1)[C@@H](C)O)[C@@H](C)O)C(=O)N[C@@H](CCCNC(=N)N)C(=O)N[C@@H](C)C(=O)N[C@@H](CCCNC(=N)N)C(=O)N[C@@H](CC(=O)O)C(=O)N[C@@H](Cc1ccccc1)C(=O)N[C@H](C(=O)N[C@@H](CCC(=O)O)C(=O)N[C@@H](Cc1c[nH]c2ccccc12)C(=O)N[C@@H](CC(C)C)C(=O)N[C@@H](CC(C)C)C(=O)N[C@@H](CO)C(=O)N[C@@H](C)C(N)=O)[C@@H](C)CC)C(=O)O

biological target: human glucagon-like peptide 1 receptor (GLP-1R) (human, UniProt P43220 24-463); assay: cell-based or functional assay

Compared with B1, H-H[dS]QGTFTSDYSRYLDEK([γGlu-Palmitoyl])RARDFIEWLLSA-NH2 [H-H-DSer-QGTFTSDYSRYLDE-K(Hexadecanoyl-isoGlu)-RARDFIEWLLSA-NH2 [Compound 8]] is 1.7-fold higher in “EC50 values for cAMP generation in HEK293 cells expressing GLP-1 receptor” value: 0.12 nM for the first, 0.2 nM for the second.

Compared with B2, B3 is 9.4-fold higher in “EC50 values for cAMP generation in HEK293 cells expressing GLP-1 receptor” value: 0.05 nM for the first, 0.47 nM for the second.

In the case of B4, the “EC50 values for cAMP generation in HEK293 cells expressing GLP-1 receptor” value is reported as 0.15 nM.

biological target: human glucagon receptor (Glucagon-R) (human, UniProt P47871 26-477); assay: cell-based or functional assay
Sequence (P47871 26-477): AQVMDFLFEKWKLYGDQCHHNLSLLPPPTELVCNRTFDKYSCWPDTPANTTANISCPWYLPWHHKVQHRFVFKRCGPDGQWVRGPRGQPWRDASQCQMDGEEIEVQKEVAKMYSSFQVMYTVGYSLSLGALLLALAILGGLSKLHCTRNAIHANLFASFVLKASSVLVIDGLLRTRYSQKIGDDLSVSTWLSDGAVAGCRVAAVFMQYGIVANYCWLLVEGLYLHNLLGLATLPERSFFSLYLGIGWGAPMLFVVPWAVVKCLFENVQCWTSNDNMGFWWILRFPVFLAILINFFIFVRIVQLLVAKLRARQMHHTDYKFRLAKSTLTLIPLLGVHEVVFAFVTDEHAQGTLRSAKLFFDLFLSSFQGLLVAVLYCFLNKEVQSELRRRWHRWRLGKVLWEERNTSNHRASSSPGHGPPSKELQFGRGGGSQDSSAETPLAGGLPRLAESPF

B1 and H-H[dS]QGTFTSDYSRYLDEK([γGlu-Palmitoyl])RARDFIEWLLSA-NH2 [H-H-DSer-QGTFTSDYSRYLDE-K(Hexadecanoyl-isoGlu)-RARDFIEWLLSA-NH2 [Compound 8]] are within 1.5-fold of each other in “EC50 values for cAMP generation in HEK293 cells expressing Glucagon receptor” value: 0.15 nM for the first, 0.2 nM for the second.

First: B2
Second: B3
The “EC50 values for cAMP generation in HEK293 cells expressing Glucagon receptor” value of the first is 1.7-fold higher: 0.1 nM for the first, 0.06 nM for the second.

In the case of B4, the “EC50 values for cAMP generation in HEK293 cells expressing Glucagon receptor” value is reported as 0.09 nM.

From patent publication US20130316941A1 (Boehringer Ingelheim, published 2013)
